# Assay results published in patent US6703362 (CYTOGEN, dated 2004).
# T1: D2H receptor domain (human D2H transporter, amino acid residues 387-685), His-tag fusion protein (human, UniProt Q07837 387-685)
# T1 construct: purified under denaturing conditions; also called recombinant D2H; not shown: poly-histidine tag (pET vector) at the NH2-terminal end
# T1 sequence: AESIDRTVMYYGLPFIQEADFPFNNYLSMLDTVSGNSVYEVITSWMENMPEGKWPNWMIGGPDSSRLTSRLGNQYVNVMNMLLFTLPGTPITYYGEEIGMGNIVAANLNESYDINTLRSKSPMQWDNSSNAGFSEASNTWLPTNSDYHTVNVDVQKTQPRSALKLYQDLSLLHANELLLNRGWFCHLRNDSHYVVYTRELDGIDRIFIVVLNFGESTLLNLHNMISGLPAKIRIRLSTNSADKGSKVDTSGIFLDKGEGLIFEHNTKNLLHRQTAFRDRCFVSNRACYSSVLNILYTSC
# B1: DCX11 (peptide)
# peptide: SQGSKQCMQYRTGRLTVGSEYGCGMNPARHATPAYPARLLPRYRAETVESCLAKPHTENSFTNVWKDDKTLDRYANYEGCLWNATGVVVCTGDETQCYGTWVPIGLAIPENEGGGSEGGGSEGGGSEGGGTKPPEYGDTPIPGYTYINPLDGTYPPGTEQNPANPNPSLEESQPLNTFMFQNNRFRNRQGALTVYTGTVTQGTDPVKTYYQYTPVSSKAMYDAYWNGKFRDCAFHSGFNEDPFVCEYQGQSSDLPQPPVNAGGGSGGGSGGGSEGGGSEGGGSEGGGSEGGGSGGGSGSGDFDYEKMANANKGAMTENADENALQSDAKGKLDSVATDYGAAIDGFIGDVSGLANGNGATGDFAGSNSQMAQVGDGDNSPLMNNFRQYLPSLPQSVECRPFVFSAGKPYEFSIDCDKINLFRGVFAFLLYVATFMYVFSTFANILRNKES
# notes: Assayed as M13 phage clone displaying the insert
# Legend:
# [1] = target: T1, D2H receptor domain (human D2H …); experiment: phage ELISA, OD on D2H over OD on BSA
# Method: (§1) 6.6. Receptor ELISA Procedure 96 well plates were coated overnight with GIT receptor, BSA and, optionally, IDE (insulin degrading enzyme, an irrelevant His-fusion protein)or hTF. The plates were blocked for one hour with 0.5% BSA-PBS. After clarification, the amplified phage were diluted 1:100 in […] plus 0.05% Tween 20 in PBS and added to the plates. Following incubation of the plates on a rotator for 1 to 2 hours, the plates were washed 5 times with 1% BSA plus 0.05% Tween 20 in PBS. […] After the plates were washed 5 times, as described above, TMB substrate was added to the wells. The plates were read at 650 nm absorbance.
# (§2) Binding to fixed Caco-2 cells, D2H and BSA was examined.
# [2] = target: T1, D2H receptor domain (human D2H …); experiment: phage ELISA, plate coated with D2H domain
# Method: as §1, §2
binder,measurement,setting,value
B1,D2H/BSA,[1],3 ratio
same,OD,[2],0.222 OD
